The data set addresses T1, His-Lmo2795 (RpiR family regulator) (UniProt Q8Y3P0).
T1 sequence: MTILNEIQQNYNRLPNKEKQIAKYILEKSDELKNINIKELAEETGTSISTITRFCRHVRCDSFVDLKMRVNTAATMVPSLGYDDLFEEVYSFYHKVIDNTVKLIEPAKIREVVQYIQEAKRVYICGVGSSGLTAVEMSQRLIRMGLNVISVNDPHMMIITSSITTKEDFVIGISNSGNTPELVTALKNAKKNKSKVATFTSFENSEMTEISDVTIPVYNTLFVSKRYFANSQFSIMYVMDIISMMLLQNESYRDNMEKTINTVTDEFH
The experiment in a line: EMSA. For orientation: Mobility shift assays separate free from complexed probe on a gel.

For the sequence “CGGAACACCCAACAAATTACCAATCGAATAAACTAACAAAGTCCTTTCAAGCGAAAGGACTTTTTATTTTTAACAGCAACGTCATTTTTTAAAGCTAGTTTCCGCAACTATCCACGCTAAAACATGAAAATCATTTTCATTTAATTGATATTGATAAAATCATTTTCTTATGATATAGTCTGTTTGAAAACGCATACTTTACACTGAAACACAGTATAGAGGAGGAGTATCAGTGGGCAATTCTGTTATGGAAAAAATCAAAGGTGGGTTAG (double strand) [lmo2795-nanE upstream (promoter) fragment]”, the binding entry was “binds”.

(Values after article doi:10.1101/2023.02.21.529469.)
